Laboratory results taken from patent publication US20170081400A1 (CEPHALON, published 2017).

Key:
[1] = biological target: T1, human TL1A extracellular domain with N-terminal HIS and FLAG tag (human, UniProt O95150 72-251); assay: SPR Run 4, purified Ab captured on Protein A, TL1A 5 ug/mL, timepoint 220
T1 construct: the whole entry is named
T1 sequence: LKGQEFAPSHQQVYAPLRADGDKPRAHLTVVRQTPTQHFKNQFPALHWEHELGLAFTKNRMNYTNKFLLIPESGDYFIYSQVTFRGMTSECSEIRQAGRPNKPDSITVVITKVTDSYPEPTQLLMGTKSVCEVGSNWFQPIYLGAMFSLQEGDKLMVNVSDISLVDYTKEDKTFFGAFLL
From the text: (§1) 1.5. Antibody expression and antigen binding as determined by SPR. Using a CM5 sensor chip (GE Healthcare) Protein A (Pierce) was coupled to the chip surface using an amine coupling kit (GE Healthcare). Protein A was coupled on flow cell 1 and 2 (or alternatively 3 and 4) using a BIACORE® T200. […] The amount of supernatant or purified protein (as well as the concentration) injected during the capture stage varied between runs and is specified in the header of the Tables 3-11. At the end of injection of the supernatant or purified antibody the change in response units was measured. This value was reported as Capture Level in Tables 3-11. […] The response units were measured prior to the end of the dissociation phase. […] The sensorgrams were double referenced (flow cell 2 is subtracted from flow cell 1 and a buffer blank). As there were a large number of antibody variants to screen, these were screened across different runs (Tables 3-11). […] A summary of the conditions used in each run is below:
(§2) 2.1. […] In some experiment the antibodies were purified using Protein A chromatography (See 1.4) and purified antibodies were used in BIACORE® (GE Healthcare) experiments.

[2] = biological target: T1, human TL1A extracellular domain with …; assay: SPR Run 4, purified Ab captured on Protein A, TL1A 5 ug/mL, timepoint 44
From the text: as §1, §2

[3] = biological target: T1, human TL1A extracellular domain with …; assay: SPR Run 5, Ab from supernatant captured on Protein A, TL1A 5 ug/mL, timepoint 220
From the text: as §1, §2

[4] = biological target: T1, human TL1A extracellular domain with …; assay: SPR Run 5, Ab from supernatant captured on Protein A, TL1A 5 ug/mL, timepoint 44
From the text: as §1, §2

| Binder | TL1A Binding Level (Late) [1] | TL1A Binding Level (Early) [2] | TL1A Binding Level (Late) [3] | TL1A Binding Level (Early) [4] |
| --- | --- | --- | --- | --- |
| 320-421 (antibody, human IgG1, V domains shown, human IgG1, lambda; the other rows have T at 28 and F at 29, so F29Y is probably meant) VH: QVQLVQSGAEVKKPGASVKVSCKASGYTYTSYDINWVRQAPGQGLEWMGWLNPNSGNTGYAQKFQGRVTMTADRSTSTAYMELSSLRSEDTAVYYCAREVPETAAFEYWGQGTLVTVSS VL: QSVLTQPPSVSGAPGQRVTISCTSSSSDIGAGLGVHWYQQLPGTAPKLLIEGYYNRPSGVPDRFSGSKSGTSASLTITGLLPEDEGDYYCQSYDGTLSALFGGGTKLTVL | – | – | 8 RU | 9 RU |
| 320-431 (antibody, human IgG1, name in Kabat numbering, V domains shown, human IgG1, lambda) VH: QVQLVQSGAEVKKPGASVKVSCKASGYTFTAYDINWVRQAPGQGLEWMGWLNPNSGNTGYAQKFQGRVTMTADRSTSTAYMELSSLRSEDTAVYYCAREVPETAAFEYWGQGTLVTVSS VL: QSVLTQPPSVSGAPGQRVTISCTSSSSDIGAGLGVHWYQQLPGTAPKLLIEGYYNRPSGVPDRFSGSKSGTSASLTITGLLPEDEGDYYCQSYDGTLSALFGGGTKLTVLG | – | – | 6 RU | 6 RU |
| 320-423 (antibody, human IgG1, name in Kabat numbering, V domains shown, human IgG1, lambda) VH: QVQLVQSGAEVKKPGASVKVSCKASGYTFSSYDINWVRQAPGQGLEWMGWLNPNSGNTGYAQKFQGRVTMTADRSTSTAYMELSSLRSEDTAVYYCAREVPETAAFEYWGQGTLVTVSS VL: QSVLTQPPSVSGAPGQRVTISCTSSSSDIGAGLGVHWYQQLPGTAPKLLIEGYYNRPSGVPDRFSGSKSGTSASLTITGLLPEDEGDYYCQSYDGTLSALFGGGTKLTVLG | – | – | 10 RU | 10 RU |
| 320-319 (antibody, human IgG1, name in Kabat numbering, V domains shown, human IgG1, lambda) VH: QVQLVQSGAEVKKPGASVKVSCKASGYTFTSYDINWVRQAPGQGLEWMGWLNPNSGNTGYAQKFQGRVTMTADRSTSTAYMELSSLRSEDTAVYYCAREVPETAAFEYWGQGTLVTVSS VL: QSVLTQPPSVSGAPGQRVTISCTSSSSDIGAGLGVHWYQQLPGTAPKLLIEGYYNRPSGVPDRFSGSKSGTSASLTITGLLPEDEGDYYCQQYDGTLSALFGGGTKLTVLG | 14 RU | 18 RU | – | – |
| 320-429 (antibody, human IgG1, name in Kabat numbering, V domains shown, human IgG1, lambda) VH: QVQLVQSGAEVKKPGASVKVSCKASGYTFWSYDINWVRQAPGQGLEWMGWLNPNSGNTGYAQKFQGRVTMTADRSTSTAYMELSSLRSEDTAVYYCAREVPETAAFEYWGQGTLVTVSS VL: QSVLTQPPSVSGAPGQRVTISCTSSSSDIGAGLGVHWYQQLPGTAPKLLIEGYYNRPSGVPDRFSGSKSGTSASLTITGLLPEDEGDYYCQSYDGTLSALFGGGTKLTVLG | – | – | 11 RU | 12 RU |
| 320-430 (antibody, human IgG1, name in Kabat numbering, V domains shown, human IgG1, lambda) VH: QVQLVQSGAEVKKPGASVKVSCKASGYTFYSYDINWVRQAPGQGLEWMGWLNPNSGNTGYAQKFQGRVTMTADRSTSTAYMELSSLRSEDTAVYYCAREVPETAAFEYWGQGTLVTVSS VL: QSVLTQPPSVSGAPGQRVTISCTSSSSDIGAGLGVHWYQQLPGTAPKLLIEGYYNRPSGVPDRFSGSKSGTSASLTITGLLPEDEGDYYCQSYDGTLSALFGGGTKLTVLG | – | – | 6 RU | 6 RU |
| 320-420 (antibody, human IgG1, name in Kabat numbering, V domains shown, human IgG1, lambda) VH: QVQLVQSGAEVKKPGASVKVSCKASGYTWTSYDINWVRQAPGQGLEWMGWLNPNSGNTGYAQKFQGRVTMTADRSTSTAYMELSSLRSEDTAVYYCAREVPETAAFEYWGQGTLVTVSS VL: QSVLTQPPSVSGAPGQRVTISCTSSSSDIGAGLGVHWYQQLPGTAPKLLIEGYYNRPSGVPDRFSGSKSGTSASLTITGLLPEDEGDYYCQSYDGTLSALFGGGTKLTVLG | – | – | 10 RU | 11 RU |
| 320-424 (antibody, human IgG1, name in Kabat numbering, V domains shown, human IgG1, lambda) VH: QVQLVQSGAEVKKPGASVKVSCKASGYTFQSYDINWVRQAPGQGLEWMGWLNPNSGNTGYAQKFQGRVTMTADRSTSTAYMELSSLRSEDTAVYYCAREVPETAAFEYWGQGTLVTVSS VL: QSVLTQPPSVSGAPGQRVTISCTSSSSDIGAGLGVHWYQQLPGTAPKLLIEGYYNRPSGVPDRFSGSKSGTSASLTITGLLPEDEGDYYCQSYDGTLSALFGGGTKLTVLG | – | – | 10 RU | 11 RU |
| 320-317 (antibody, human IgG1, name in Kabat numbering, V domains shown, human IgG1, lambda) VH: QVQLVQSGAEVKKPGASVKVSCKASGYTFTSYDINWVRQAPGQGLEWMGWLNPNSGNTGYAQKFQGRVTMTADRSTSTAYMELSSLRSEDTAVYYCAREVPETAAFEYWGQGTLVTVSS VL: QSVLTQPPSVSGAPGQRVTISCTSSSSDIGAGLGVHWYQQLPGTAPKLLIEGYYNRPSGVPDRFSGSKSGTSASLTITGLLPEDEGDYYCYSYDGTLSALFGGGTKLTVLG | 83 RU | 86 RU | – | – |
| 320-422 (antibody, human IgG1, name in Kabat numbering, V domains shown, human IgG1, lambda) VH: QVQLVQSGAEVKKPGASVKVSCKASGYTFASYDINWVRQAPGQGLEWMGWLNPNSGNTGYAQKFQGRVTMTADRSTSTAYMELSSLRSEDTAVYYCAREVPETAAFEYWGQGTLVTVSS VL: QSVLTQPPSVSGAPGQRVTISCTSSSSDIGAGLGVHWYQQLPGTAPKLLIEGYYNRPSGVPDRFSGSKSGTSASLTITGLLPEDEGDYYCQSYDGTLSALFGGGTKLTVLG | – | – | 9 RU | 10 RU |
| 320-316 (antibody, human IgG1, name in Kabat numbering, V domains shown, human IgG1, lambda) VH: QVQLVQSGAEVKKPGASVKVSCKASGYTFTSYDINWVRQAPGQGLEWMGWLNPNSGNTGYAQKFQGRVTMTADRSTSTAYMELSSLRSEDTAVYYCAREVPETAAFEYWGQGTLVTVSS VL: QSVLTQPPSVSGAPGQRVTISCTSSSSDIGAGLGVHWYQQLPGTAPKLLIEGYYNRPSGVPDRFSGSKSGTSASLTITGLLPEDEGDYYCWSYDGTLSALFGGGTKLTVLG | 62 RU | 65 RU | – | – |

The next lines start with the values.

| TL1A Binding Level (Late) [1] | TL1A Binding Level (Early) [2] | TL1A Binding Level (Late) [3] | TL1A Binding Level (Early) [4] | Binder |
| --- | --- | --- | --- | --- |
| 82 RU | 85 RU | – | – | 320-315 (antibody, human IgG1, name in Kabat numbering, V domains shown, human IgG1, lambda) VH: QVQLVQSGAEVKKPGASVKVSCKASGYTFTSYDINWVRQAPGQGLEWMGWLNPNSGNTGYAQKFQGRVTMTADRSTSTAYMELSSLRSEDTAVYYCAREVPETAAFEYWGQGTLVTVSS VL: QSVLTQPPSVSGAPGQRVTISCTSSSSDIGAGLGVHWYQQLPGTAPKLLIEGYYNRPSGVPDRFSGSKSGTSASLTITGLLPEDEGDYYCLSYDGTLSALFGGGTKLTVLG |
| – | – | 10 RU | 11 RU | 320-428 (antibody, human IgG1, name in Kabat numbering, V domains shown, human IgG1, lambda) VH: QVQLVQSGAEVKKPGASVKVSCKASGYTFLSYDINWVRQAPGQGLEWMGWLNPNSGNTGYAQKFQGRVTMTADRSTSTAYMELSSLRSEDTAVYYCAREVPETAAFEYWGQGTLVTVSS VL: QSVLTQPPSVSGAPGQRVTISCTSSSSDIGAGLGVHWYQQLPGTAPKLLIEGYYNRPSGVPDRFSGSKSGTSASLTITGLLPEDEGDYYCQSYDGTLSALFGGGTKLTVLG |
| – | – | 10 RU | 11 RU | 320-427 (antibody, human IgG1, name in Kabat numbering, V domains shown, human IgG1, lambda) VH: QVQLVQSGAEVKKPGASVKVSCKASGYTFKSYDINWVRQAPGQGLEWMGWLNPNSGNTGYAQKFQGRVTMTADRSTSTAYMELSSLRSEDTAVYYCAREVPETAAFEYWGQGTLVTVSS VL: QSVLTQPPSVSGAPGQRVTISCTSSSSDIGAGLGVHWYQQLPGTAPKLLIEGYYNRPSGVPDRFSGSKSGTSASLTITGLLPEDEGDYYCQSYDGTLSALFGGGTKLTVLG |
| – | – | 12 RU | 14 RU | 320-425 (antibody, human IgG1, name in Kabat numbering, V domains shown, human IgG1, lambda) VH: QVQLVQSGAEVKKPGASVKVSCKASGYTFDSYDINWVRQAPGQGLEWMGWLNPNSGNTGYAQKFQGRVTMTADRSTSTAYMELSSLRSEDTAVYYCAREVPETAAFEYWGQGTLVTVSS VL: QSVLTQPPSVSGAPGQRVTISCTSSSSDIGAGLGVHWYQQLPGTAPKLLIEGYYNRPSGVPDRFSGSKSGTSASLTITGLLPEDEGDYYCQSYDGTLSALFGGGTKLTVLG |
| – | – | 9 RU | 10 RU | 320-426 (antibody, human IgG1, name in Kabat numbering, V domains shown, human IgG1, lambda) VH: QVQLVQSGAEVKKPGASVKVSCKASGYTFHSYDINWVRQAPGQGLEWMGWLNPNSGNTGYAQKFQGRVTMTADRSTSTAYMELSSLRSEDTAVYYCAREVPETAAFEYWGQGTLVTVSS VL: QSVLTQPPSVSGAPGQRVTISCTSSSSDIGAGLGVHWYQQLPGTAPKLLIEGYYNRPSGVPDRFSGSKSGTSASLTITGLLPEDEGDYYCQSYDGTLSALFGGGTKLTVLG |
